Results as given in patent publication KR20220081857A (dated 2022).
Numbering of substitutions follows the chain as printed. In names and notes the source's numbering stands. Like-named read-outs stand apart in the source and are kept apart here.

T1: 인간 OX40L 단백질 (OX40L-his; ACROBiosystems Cat# OXL-H52Q8) (human, UniProt P23510 51-183)
T1 sequence: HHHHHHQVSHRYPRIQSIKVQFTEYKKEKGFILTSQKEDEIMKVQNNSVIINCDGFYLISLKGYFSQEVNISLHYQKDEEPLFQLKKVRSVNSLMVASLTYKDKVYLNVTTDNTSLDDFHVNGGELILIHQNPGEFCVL

B1: 이중 특이성 항체 Hu3F07-TNFαi HC (bispecific antibody)
heavy: not shown
light: DIVMTQSPLSLPVTLGEPASISCRSSQSLVHSNGNTYLHWYLQKPGQSPQLLIYKVSNRFSGVPDRFSGSGSGTDFTLKISRVEAEDVGVYYCSQSTHVPPTFGGGTKLEIKRTVAAPSVFIFPPSDEQLKSGTASVVCLLNNFYPREAKVQWKVDNALQSGNSQESVTEQDSKDSTYSLSSTLTLSKADYEKHKVYACEVTHQGLSSPVTKSFNRGEC
B2: 이중 특이성 항체 I3F07-TNFαi HC (bispecific antibody)
heavy: not shown
light: B1 light with M4L, T14S, E17D, P18Q, Q50K, V88L, Y92F, T107S
B3: 항 OX40L 항체 Hu3F07 (antibody, human IgG4 S228P, kappa, V domains shown)
VH: QVQLVQSGAEVKKPGASVKVSCKASGFTFPDYWMHWVRQAPGQGLEWMGEIDPPNGRTNYNEKFKSRVTMTRDTSISTAYMELSRLRSDDTAVYYCARGIYYVDYWGQGTTVTVSS
VL: DIVMTQSPLSLPVTLGEPASISCRSSQSLVHSNGNTYLHWYLQKPGQSPQLLIYKVSNRFSGVPDRFSGSGSGTDFTLKISRVEAEDVGVYYCSQSTHVPPTFGGGTKLEIKR
B4: 항 OX40L 항체 21G07 (antibody, human IgG4 S228P, kappa, V domains shown)
VH: QVQLQQSGAELVKPGASVKLSCKASGYTFTNYWMQWVKQRPGQGLEWIGEIDPSDGRTNYNEKFKNKATLTVDRSSSTAYIKLSSLTSEDSAVYYCAREVSLRSMDYWGQGTSVTVSS
VL: B3 VL with M4L, T14S, E17D, P18Q, Q50K, V88L, Y92F, P101F, G105S
B5: 항 OX40L 항체 10H07 (antibody, human IgG4 S228P, kappa, V domains shown)
VH: QVYLQQSGAELVKPGASVKLSCKASGYTFTDYWMHWVKQRPGQGLEWIGEIDPGNGRTNYNEKFKNKATLSVDKSSNTAYMQFSSLTSEDSAVFYCASEGAGRGFPYWGQGTLVTVSA
VL: B3 VL with I2V, M4L, S7T, T14S, E17D, P18Q, Q50K, V88L, Y92F, P101W
B6: reference 항-OX40L 항체 O4L (oxelumab VH/VL) (antibody, human IgG4 S228P, kappa, V domains shown)
VH: EVQLLESGGGLVQPGGSLRLSCAASGFTFNSYAMSWVRQAPGKGLEWVSIISGSGGFTYYADSVKGRFTISRDNSRTTLYLQMNSLRAEDTAVYYCAKDRLVAPGTFDYWGQGALVTVSS
VL: DIQMTQSPSSLSASVGDRVTITCRASQGISSWLAWYQQKPEKAPKSLIYAASSLQSGVPSRFSGSGSGTDFTLTISSLQPEDFATYYCQQYNSYPYTFGQGTKLEIKR
B7: 이중 특이성 항체 02C09-TNFαi HC (bispecific antibody)
heavy: not shown
light: DIQMTQSPSSLSASLGDRVTITCRASQSIGRWLAWYQQKPGNAPKLLIYKATILESGVPSRFSGSGSGTEFALTISSLQPDDFSAYYCQQYNSYPYTFGQGTKLEIKRTVAAPSVFIFPPSDEQLKSGTASVVCLLNNFYPREAKVQWKVDNALQSGNSQESVTEQDSKDSTYSLSSTLTLSKADYEKHKVYACEVTHQGLSSPVTKSFNRGEC

What was measured:
Experiment in all cases: cell-based or functional assay
[1] = molecular target: T1, 인간 OX40L 단백질 (OX40L-his; ACROBiosystems …)
[2] = molecular target: 인간 TNFα (ACROBiosystems TNF-H5228) (human, UniProt P01375 77-233)
[3] = molecular target: T1, 인간 OX40L 단백질 (OX40L-his; ACROBiosystems …); remark: listed apart in the source

Sequence of 인간 TNFα (ACROBiosystems TNF-H5228) (P01375 77-233 limits assumed): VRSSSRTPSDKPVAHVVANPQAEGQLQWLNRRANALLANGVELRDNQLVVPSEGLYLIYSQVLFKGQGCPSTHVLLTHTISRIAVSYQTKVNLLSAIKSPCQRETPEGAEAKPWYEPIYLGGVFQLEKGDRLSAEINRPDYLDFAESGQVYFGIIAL

Binder | IC50 (nM), OX40L blockade assay [1] [nM] | IC50 (μg/mL), OX40L blockade assay [1] [µg/mL] | IC50 (nM), TNFα blockade assay [2] [nM] | IC50 (nM), OX40L blockade assay [3] [nM]
B1 | 0.21 | 0.041 |  | 
B2 |  |  | 0.055 | 0.91
B3 | 0.2 | 0.03 |  | 
B4 | 0.85 | 0.128 |  | 
B5 | 0.41 | 0.061 |  | 
B6 | 1.95 | 0.293 |  | 
B7 | 0.59 | 0.117 |  | 
